Data taken from patent publication US20190248902A1 (published 2019).

Tests used:
[1] = molecular target: T1, human ASGR-1 (wild type) (human, UniProt P07306 1-291); assay: FACS ratio: 65C12 geomean / this mAb geomean
T1 construct: also called wt ASGR1; huASGR-1
T1 sequence: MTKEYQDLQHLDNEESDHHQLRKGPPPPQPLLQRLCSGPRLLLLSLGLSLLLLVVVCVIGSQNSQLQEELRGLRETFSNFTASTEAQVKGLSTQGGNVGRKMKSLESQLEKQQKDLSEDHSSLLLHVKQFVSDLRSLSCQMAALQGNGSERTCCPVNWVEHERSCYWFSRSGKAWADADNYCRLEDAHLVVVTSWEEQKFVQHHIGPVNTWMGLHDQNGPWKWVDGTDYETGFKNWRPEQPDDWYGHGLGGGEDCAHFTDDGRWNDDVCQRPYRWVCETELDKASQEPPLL
How it was run: (§1)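 CHO-S cells transiently expressing wild-type or point-mutant hASGR-1 were stained with antibody at 5 ug/ml for 1 h at 4 °C. Bound antibody was detected by Fc-specific Alexa 647 secondary plus 7-AAD and read by flow cytometry. Ratio is 65C12 geomean divided by test mAb geomean, normalizing for expression.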

[2] = molecular target: T2, human ASGR-1 mutant construct H203 (human, UniProt P07306 1-291); assay: FACS ratio: 65C12 geomean / this mAb geomean
T2 construct: Arg/Glu scanning: non-arginine residues were changed to arginine; Transiently expressed on CHO-S cells
T2 sequence: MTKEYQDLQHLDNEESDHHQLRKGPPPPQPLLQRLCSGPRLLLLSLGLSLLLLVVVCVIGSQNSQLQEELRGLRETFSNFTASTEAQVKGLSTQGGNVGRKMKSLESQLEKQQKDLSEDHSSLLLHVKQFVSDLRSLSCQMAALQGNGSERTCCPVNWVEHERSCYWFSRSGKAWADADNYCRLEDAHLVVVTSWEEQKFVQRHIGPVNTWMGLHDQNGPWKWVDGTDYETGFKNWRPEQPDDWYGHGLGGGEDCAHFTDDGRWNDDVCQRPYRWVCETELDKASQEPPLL
How it was run: as §1

[3] = molecular target: T2, human ASGR-1 mutant construct H203; assay: FACS ratio: H203 normalized value / wt normalized value
How it was run: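 Transiently transfected CHO-S cells expressing wild-type or mutant hASGR-1 incubated with antibody at 5 ug/ml, 1 h at 4 °C; bound antibody detected by Alexa Fluor 647 anti-Fc plus 7-AAD, by flow cytometry. Binding normalized to expression using an unaffected antibody (65C12), then to wild type; hits defined as >3× IQR above third quartile.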

B1: 4A2 (antibody, V domains shown)
VH: QVQLVQSGTEVKKPGASVKVSCKASGYTFTNYDINWVRQATGQGLEWMGWMHPNSGNTGYAQKFQGRVTLTRNTSISTAYMELSSLRSEDTAVYYCASSSGWYYFDYWGQGTLVTVSS
VL: DIVMTQSPDSLAVSLGERATINCKSSQSILHSSNNNNYLAWFQQKPGQPPKLLLYWASTRESGVPDRFSGSGSGTDFTLTISSLQPEDVAVYYCQQYYNTPVTFGPGTKVGIK
notes: mAb
With B1 the “Expression Normalization to mAb 65C12” value [1] was 1.36, the “Expression Normalization to mAb 65C12” value [2] was 1.36 and the “Normalization to wt ASGR1 Binding” value [3] was 0.997.

B2: 25A4 (antibody, V domains shown)
VH: QVLLVQSGAEVKRPGASVKVSCKASGYTFTNYDINWVRQATGQGLEWMGWMYPNSGNTGYAQKFQGRVTMTRNTSISTAYMELSSLRSEDTAVYYCASSSGWYYFDYWGQGTLVTVSS
VL: DIVMTQFPDSLAVSLGERATIKCKSSQSVLYSSHNNNYLAWYQQKPGQPPKLLLYWASTRESGVPDRFSGSGSGTEFTLTISSLEAEDVAVYYCQQYYSTPPTFGQGTKVEIK
notes: mAb
With B2 the “Expression Normalization to mAb 65C12” value [1] was 1.01, the “Expression Normalization to mAb 65C12” value [2] was 1.29 and the “Normalization to wt ASGR1 Binding” value [3] was 1.27.

B3: 26C4 (antibody, V domains shown)
VH: QVQLVQSGAEVKKPGASVKVSCKASGYTFTNYDINWVRQASGQGLEWMGWMNPNSGNTGYAQRFQGRVTMTRNTSINTAYMELSSLRSEDTAVYYCASSSGWYYFDYWGQGTLVTVSS
VL: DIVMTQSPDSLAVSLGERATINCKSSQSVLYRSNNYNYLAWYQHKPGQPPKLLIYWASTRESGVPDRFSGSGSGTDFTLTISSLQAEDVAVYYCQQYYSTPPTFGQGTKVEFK
notes: mAb
B3 was tested, and the “Expression Normalization to mAb 65C12” value [1] was 1.22, the “Expression Normalization to mAb 65C12” value [2] was 1.91 and the “Normalization to wt ASGR1 Binding” value [3] was 1.57.

B4: 29H8 (antibody, V domains shown)
VH: QVQLVQSGAEVQKPGASVKVSCKASGYTFTNYDINWVRQATGQGLEWMGWMNPNSGNTGYAQRFQGRVTMTRNTSISAAYMELSSLRSEDTAVYYCASSSGWYYFDYWGQGTLVTVSS
VL: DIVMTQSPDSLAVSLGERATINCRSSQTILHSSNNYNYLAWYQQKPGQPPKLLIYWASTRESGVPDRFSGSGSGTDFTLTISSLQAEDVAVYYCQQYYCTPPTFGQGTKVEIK
notes: mAb
B4 was tested, and the “Expression Normalization to mAb 65C12” value [1] was 1.37, the “Expression Normalization to mAb 65C12” value [2] was 1.95 and the “Normalization to wt ASGR1 Binding” value [3] was 1.42.

B5: 7E11 (antibody, V domains shown)
VH: QVQLVESGGGVVQPGRSLRLSCAASGFTFSSFGMHWVRQAPGKGLEWVAIIWHDGSNKYYADSVKGRFTISRDNSNNTLYLQMSSLRAEDTAVYYCARDLSMGGMDVWGQGTTVTVSS
VL: DIQMTQSPSSLSASVGDRVTIACRASQNIISYLNWYQQKPGKAPKFLIYTASSLQSGVPSRFSGSGSGTDFTLTISSLQPEDFAIYYCQQTYSTPLTFGGGTKVEIK
notes: mAb
B5 was tested, and the “Expression Normalization to mAb 65C12” value [1] was 1.23, the “Expression Normalization to mAb 65C12” value [2] was 1.75 and the “Normalization to wt ASGR1 Binding” value [3] was 1.42.

B6: 194A4 (antibody, V domains shown)
VH: QVQLVQSGTEVKKPGASLKVSCKASGYTFTVYYLNWVRQAPGQGLEWMGWINPNSGGTNYAQKFQGRVTMTRDTSISTAYMELSRLRSDDTAVYYCARGYDILTGWGQGTLVTVSS
VL: EIVLTQSPGTLSLSPGERATLSCRASRGVSNIYLAWYQQKPGQAPRLLIYGASNRATGIPDRFSGSGSGTDFTLTISRLEPEDFAVYYCQHNDYSMFTFGPGTKVDIK
notes: mAb
B6 was tested, and the “Expression Normalization to mAb 65C12” value [1] was 3.44, the “Expression Normalization to mAb 65C12” value [2] was 2.12 and the “Normalization to wt ASGR1 Binding” value [3] was 0.616.

B7: 184E7 (antibody, V domains shown)
VH: QVQLVQSGAEVKTPGASVKVSCRASGYTFTSYNMHWVRQVPGQGLEWMGWINPNNGGSNYTQKFQGRVTMTRDTSISTAYMELSRLRSDDTAVYYCARKFGDWGQGTLVTVSS
VL: DIQMTQSPSSRSASIGERVTITCRASQGISNYLAWIQQKPGTAPKSLIYAASSLQSGVSSRFSGSGFGTDFTITISSVQREDFATYYCQQYNGYPFTFGHGTKVDIK
notes: mAb
B7 was tested, and the “Expression Normalization to mAb 65C12” value [1] was 1.31, the “Expression Normalization to mAb 65C12” value [2] was 1.4 and the “Normalization to wt ASGR1 Binding” value [3] was 1.07.

B8: 56E5 (antibody, V domains shown)
VH: QVQLVQSGAEVKKPGASVKVSCQASGYTFTGYHMHWVRQAPGQGLEWMGWINPNNNATNYAQKFQGRVTMTRDTSISTAYMELRRLRSDDTAVYHCARDGTSSFDYWGQGTLVTVSS
VL: DIQMTQSPSSVSASVGDRVTITCRASQGIRKWLAWYQQKPGKAPKLLIYAASSLQSGVPSRFSGSGSGTDFTLTISSLQPEDFATYYCQQANSFPFTFGPGTKVDIK
notes: mAb
With B8 the “Expression Normalization to mAb 65C12” value [1] was 1.32, the “Expression Normalization to mAb 65C12” value [2] was 1.27 and the “Normalization to wt ASGR1 Binding” value [3] was 0.962.

B9: 72G9 (antibody, V domains shown)
VH: EVQLVESGGGLVKPGGSLRLSCAASGFTFSSYSMNWVRQAPGKGLEWVSSISGSSSYIYYADSVKGRFTISRDNAKNSLYLQMNSLRAEDTAVYFCARGGSRGFDPWGQGTLVTVSS
VL: DIQMTQSPSSLSASVGDRVTITCRASQSITSYLNWYQQKPGKAPKLLIYTASSLQSGVPSRFSGSGSGTDFTLTISSLQPEDFATYYCQQSHSFPFTFGPGTKVDIK
notes: mAb
For B9, the “Expression Normalization to mAb 65C12” value [1] was 1.54, the “Expression Normalization to mAb 65C12” value [2] was 1.37 and the “Normalization to wt ASGR1 Binding” value [3] was 0.893.

B10: 48B12 (antibody, V domains shown)
VH: EVQLLESGGGLVQPGGSLRLSCAASGFTFSSYAMNWVRQAPGKGLEWVSAISGRGGNTFYADSVKGRFTISRDNSKNTLYLQMNSLRAEDTAVYYCAKRETYNWNYEGFDYWGQGTLVTVSS
VL: SYELTQPPSVSVSPGQTARITCSGDALPKKYAYWYQQKSGQAPVLVIYEDSKRPSGIPERFSGSSSGTMATLTISGAQVEDEADYYCNSTDSSGNHVVFGGGTKLTVL
notes: mAb
In the case of B10, the “Expression Normalization to mAb 65C12” value [1] is reported as 1.07, the “Expression Normalization to mAb 65C12” value [2] is reported as 1.26 and the “Normalization to wt ASGR1 Binding” value [3] is reported as 1.18.

B11: 6G7 (antibody, V domains shown)
VH: QVQLVESGGGVVQPGRSLRLSCAASGFTFSSYGMHWVRQTPGKGLEWVAIISYVGKNKYYADSVKGRFTISRDNSKNTLYLQMNSLRAEDTAVYYCARRGNSYGGYGMDVWGQGTTVTVSS
VL: DIQMTQSPSSRSASVGDRVTITCQASQDISNYLNWCQQKPGKALKLLIYDASTLETGVPSRFSGSGSGTDFTFTISSVQPEDIATYYCQQYDNVPITFGQGTRLEIK
notes: mAb
For B11, the “Expression Normalization to mAb 65C12” value [1] was 1.45, the “Expression Normalization to mAb 65C12” value [2] was 1.71 and the “Normalization to wt ASGR1 Binding” value [3] was 1.18.

B12: 22G5 (antibody, V domains shown)
VH: EVQLLESGGGLVQPGGSLRLSCAASGFTFSSYAMNWVRQAPGMGLEWVSVISRSGGYTYYADSVKGRFTISRDNSKNTLYLQMNSLRAEDTAVYYCASRLAVAGSEAFDIWGQGTLVTVSS
VL: DIQMTQSPSSLSASVGDRVTITCRASQNISSYLNWYQQKQGKAPKLLIYAASSLQNGVPSRFSGRGSGTDFTLTISSLQPEDFATYYCQQSYRTPLFTFGPGTKVDFK
notes: mAb
With B12 the “Expression Normalization to mAb 65C12” value [1] was 1.24, the “Expression Normalization to mAb 65C12” value [2] was 1.71 and the “Normalization to wt ASGR1 Binding” value [3] was 1.37.

B13: 190F8 (antibody, V domains shown)
VH: QVQLVESGGGVVQPGRSLRLSCAASGFTFSTYGMHWVRQAPGKGLEWVAVIWYDGSNKNYADSVKGRFTISRDNSKNTLYLQMNSLRAEDTAVYYCARDQGVGYDGLDVWGQGTTVTVSS
VL: DIQMTQSPSSLSASVGDRVTITCRTSQGIGNYLAWFQQKPGKAPKSLLYKASSLQSGVPSKFSGSGSGTDFTLTISSLQPEDFATYYCQQYMTYPLTFGGGTKVEIK
notes: mAb
B13 was tested, and the “Expression Normalization to mAb 65C12” value [1] was 1.54, the “Expression Normalization to mAb 65C12” value [2] was 1.71 and the “Normalization to wt ASGR1 Binding” value [3] was 1.11.

B14: 191G1 (antibody, V domains shown)
VH: QVQLVESGGGVVQPGRSLRLSCAASGFTFSSYGMHWVRQAPGKGLEWVAVIWYDGSNEHYADSVKGRFTISRDNSKNTLYLQMNSLRAEDTAVYYCARDRGVGYYGLDVWGQGTTVTVSS
VL: DIQMTQSPSSLSASVGDRVTITCRASQGISNYLAWFQQKPGKAPKSLIYAASSLQSGVPSKFSGSGSGTDFTLTISSLQPEDFATYYCQHYLTYPLTFGGGTKVEIK
notes: mAb
In the case of B14, the “Expression Normalization to mAb 65C12” value [1] is reported as 2.22, the “Expression Normalization to mAb 65C12” value [2] is reported as 2.37 and the “Normalization to wt ASGR1 Binding” value [3] is reported as 1.07.

B15: 5E5 (antibody, V domains shown)
VH: QVQLVESGGGVVQPGRSLRLSCAASGFTFSNYVMHWVRQAPGKGLEWVAVIWYDGSNKYYADSVKGRFTISRDNSKNTLYLQMNSLRAEDTAVYYCTREVYSSGWYDYGMDVWGQGTTVTVSS
VL: DIQMTQSPSSLSASVGDRVTITCRASQGIRNDLGWYQQKPGKAPKRLIYAASSLQSGVPSRFSGSGSGTEFTLTISSLQPEDFATYYCLQHYSYPRTFGQGTKVEVK
notes: mAb
In the case of B15, the “Expression Normalization to mAb 65C12” value [1] is reported as 1.38, the “Expression Normalization to mAb 65C12” value [2] is reported as 2.04 and the “Normalization to wt ASGR1 Binding” value [3] is reported as 1.48.

B16: 7G4 (antibody, V domains shown)
VH: QVQLVESGGGVVQPGRSLRLSCAASGFTFNNYVMHWVRQAPGKGLEWVAVIWYDGSNKYYADSVKGRFTISRDNSKNTLYLQMTSLRAEDTAVYYCAREKYSSNWYDYGMDVWGQGTTVTVSS
VL: DIQMTQSPSSLSASVGDRVTITCRASQGIRNDLGWYQQRPGKAPKRLIYAASSLQSGVPSRFSGSGSGTEFTLTISSLQPEDSATYYCLHQYSYPRTFGQGTKVEIK
notes: mAb
For B16, the “Expression Normalization to mAb 65C12” value [1] was 1.16, the “Expression Normalization to mAb 65C12” value [2] was 1.39 and the “Normalization to wt ASGR1 Binding” value [3] was 1.2.
